Each block holds one binder with its values, some of them ahead of it. Starred links: 1 amine or outer side, 2 acyl side, 3 side chain; linkers in the order of their positions; H or OH if unused. Positions of bridges follow the written chain, without caps; N, C: chain ends. Non-standard residues stand in square brackets, D forms with d. Primed or numbered codes have the meaning given here. *: point of attachment. Ttds = 1,13-diamino-4,7,10-trioxatridecan-succinamic acid spacer, NCCCOCCOCCOCCCNC(=O)CCC(=O)*; APAc″ = 2-(4-(amino)piperidin-1-yl)acetic acid, NC1CCN(CC(=O)*)CC1; DOTA = O=C(O)CN1CCN(CC(=O)O)CCN(CC(=O)*)CCN(CC(=O)O)CC1; mXylylene = c1cc(C[*:1])cc(C[*:2])c1; tBuAla = CC(C)(C)C[C@H](N)C(=O)O; Aic = NC1(C(=O)O)Cc2ccccc2C1; Pen = CC(C)(S)[C@H](N)C(=O)O; Propanoyl(3-OH) = O=C(CCO)*; dPip = O=C(O)[C@H]1CCCCN1; Ac6c = NC1(C(=O)O)CCCCC1; APAc = not defined here; Ac5c = NC1(C(=O)O)CCCC1; Thp = NC1(C(=O)O)CCOCC1; Aib = CC(C)(N)C(=O)O; Sar = CNCC(=O)O
Molecular target: human carbonic anhydrase 9 (CAIX) (human, UniProt Q16790 38-459)
Test: FACS competition on HT-29 cells against tracer 3BP-2776; pIC50 category A = pIC50 >8.0

B2: 3BP-3585 (peptide)
peptide: {DOTA-APAc}-VYCE[dP]DW[Thp]TWSC-NH2
modifications: linker 3-12 via mXylylene; reading uncertain
notes: also called DOTA-APAc-Val-Tyr-[Cys(3MeBn)-Glu-pro-Asp-Trp-Thp-Thr-Trp-Ser-Cys]-NH2
pIC50: > 8 pic50

B3: 3BP-3858 (peptide)
peptide: {DOTA-APAc″}-CE[dP]DWLTWSC-NH2
modifications: linker 1-10 via mXylylene
notes: also called DOTA-APAc-[Cys(3MeBn)-Glu-pro-Asp-Trp-Leu-Thr-Trp-Ser-Cys]-NH2
pIC50: > 8 pic50

B4: 3BP-3493 (peptide)
peptide: Ac-VYCE[dP]DW[tBuAla]TWA[Pen]-NH2
modifications: linker 3-12 via mXylylene
SMILES: CC(=O)N[C@H](C(=O)N[C@@H](Cc1ccc(O)cc1)C(=O)N[C@H]1CSCc2cccc(c2)CSC(C)(C)[C@@H](C(N)=O)NC(=O)[C@H](C)NC(=O)[C@H](Cc2c[nH]c3ccccc23)NC(=O)[C@H]([C@@H](C)O)NC(=O)[C@H](CC(C)(C)C)NC(=O)[C@H](Cc2c[nH]c3ccccc23)NC(=O)[C@H](CC(=O)O)NC(=O)[C@H]2CCCN2C(=O)[C@H](CCC(=O)O)NC1=O)C(C)C
notes: also called Ac-Val-Tyr-[Cys(3MeBn)-Glu-pro-Asp-Trp-Npg-Thr-Trp-Ala-Pen]-NH2
pIC50: > 8 pic50

B5: 3BP-3501 (peptide)
peptide: Ac-VYCE[Sar]DW[tBuAla]TWA[Pen]-NH2
modifications: linker 3-12 via mXylylene
SMILES: CC(=O)N[C@H](C(=O)N[C@@H](Cc1ccc(O)cc1)C(=O)N[C@H]1CSCc2cccc(c2)CSC(C)(C)[C@@H](C(N)=O)NC(=O)[C@H](C)NC(=O)[C@H](Cc2c[nH]c3ccccc23)NC(=O)[C@H]([C@@H](C)O)NC(=O)[C@H](CC(C)(C)C)NC(=O)[C@H](Cc2c[nH]c3ccccc23)NC(=O)[C@H](CC(=O)O)NC(=O)CN(C)C(=O)[C@H](CCC(=O)O)NC1=O)C(C)C
notes: also called Ac-Val-Tyr-[Cys(3MeBn)-Glu-Nmg-Asp-Trp-Npg-Thr-Trp-Ala-Pen]-NH2
pIC50: > 8 pic50

B7: 3BP-3584 (peptide)
peptide: {DOTA-APAc}-VYCE[dP]DW[Ac6c]TWSC-NH2
modifications: linker 3-12 via mXylylene; reading uncertain
notes: also called DOTA-APAc-Val-Tyr-[Cys(3MeBn)-Glu-pro-Asp-Trp-Egz-Thr-Trp-Ser-Cys]-NH2
pIC50: > 8 pic50

B8: 3BP-3729 (peptide)
peptide: Ac-YCE[dP]DWLTWSC-NH2
modifications: linker 2-11 via 3MeBn
notes: also called Ac-Tyr-[Cys(3MeBn)-Glu-pro-Asp-Trp-Leu-Thr-Trp-Ser-Cys]-NH2
pIC50: > 8 pic50

B12: 3BP-3283 (peptide)
peptide: Ac-VYCE[dPip]DWLTWAC-NH2
modifications: linker 3-12 via mXylylene
SMILES: CC(=O)N[C@H](C(=O)N[C@@H](Cc1ccc(O)cc1)C(=O)N[C@H]1CSCc2cccc(c2)CSC[C@@H](C(N)=O)NC(=O)[C@H](C)NC(=O)[C@H](Cc2c[nH]c3ccccc23)NC(=O)[C@H]([C@@H](C)O)NC(=O)[C@H](CC(C)C)NC(=O)[C@H](Cc2c[nH]c3ccccc23)NC(=O)[C@H](CC(=O)O)NC(=O)[C@H]2CCCCN2C(=O)[C@H](CCC(=O)O)NC1=O)C(C)C
notes: also called Ac-Val-Tyr-[Cys(3MeBn)-Glu-pip-Asp-Trp-Leu-Thr-Trp-Ala-Cys]-NH2
pIC50: > 8 pic50

B14: 3BP-2959 (peptide)
peptide: {DOTA-Ttds}-VYCEGDWLTWQC-NH2
modifications: linker 3-12 via mXylylene
pIC50: > 8 pic50

More lines, now with the values ahead:

pIC50: > 8 pic50
B1: 3BP-3867 (peptide)
peptide: {DOTA-APAc″}-YCE[dP]DWLTWSC-NH2
modifications: linker 2-11 via mXylylene
notes: also called DOTA-APAc-Tyr-[Cys(3MeBn)-Glu-pro-Asp-Trp-Leu-Thr-Trp-Ser-Cys]-NH2

pIC50: > 8 pic50
B6: 3BP-3730 (peptide)
peptide: {Propanoyl(3-OH)}-YCE[dP]DWLTWSC-NH2
modifications: linker 2-11 via 3MeBn
notes: also called 3OHPr-Tyr-[Cys(3MeBn)-Glu-pro-Asp-Trp-Leu-Thr-Trp-Ser-Cys]-NH2

pIC50: > 8 pic50
B9: 3BP-3064 (peptide)
peptide: Ac-VYCEGDWLTWQ[Pen]-NH2
modifications: linker 3-12 via mXylylene
SMILES: CC(=O)N[C@H](C(=O)N[C@@H](Cc1ccc(O)cc1)C(=O)N[C@H]1CSCc2cccc(c2)CSC(C)(C)[C@@H](C(N)=O)NC(=O)[C@H](CCC(N)=O)NC(=O)[C@H](Cc2c[nH]c3ccccc23)NC(=O)[C@H]([C@@H](C)O)NC(=O)[C@H](CC(C)C)NC(=O)[C@H](Cc2c[nH]c3ccccc23)NC(=O)[C@H](CC(=O)O)NC(=O)CNC(=O)[C@H](CCC(=O)O)NC1=O)C(C)C

pIC50: > 8 pic50
B10: 3BP-3587 (peptide)
peptide: {DOTA-APAc}-VYCE[dP]DW[Ac5c]TWSC-NH2
modifications: linker 3-12 via mXylylene; reading uncertain
notes: also called DOTA-APAc-Val-Tyr-[Cys(3MeBn)-Glu-pro-Asp-Trp-Eca-Thr-Trp-Ser-Cys]-NH2

pIC50: > 8 pic50
B11: 3BP-3586 (peptide)
peptide: {DOTA-APAc}-VYCE[dP]DW[Aic]TWSC-NH2
modifications: linker 3-12 via mXylylene; reading uncertain
notes: also called DOTA-APAc-Val-Tyr-[Cys(3MeBn)-Glu-pro-Asp-Trp-Aic-Thr-Trp-Ser-Cys]-NH2

pIC50: > 8 pic50
B13: 3BP-3059 (peptide)
peptide: Ac-VYCE[Aib]DWLTWQC-NH2
modifications: linker 3-12 via mXylylene
SMILES: CC(=O)N[C@H](C(=O)N[C@@H](Cc1ccc(O)cc1)C(=O)N[C@H]1CSCc2cccc(c2)CSC[C@@H](C(N)=O)NC(=O)[C@H](CCC(N)=O)NC(=O)[C@H](Cc2c[nH]c3ccccc23)NC(=O)[C@H]([C@@H](C)O)NC(=O)[C@H](CC(C)C)NC(=O)[C@H](Cc2c[nH]c3ccccc23)NC(=O)[C@H](CC(=O)O)NC(=O)C(C)(C)NC(=O)[C@H](CCC(=O)O)NC1=O)C(C)C
notes: also called Ac-Val-Tyr-[Cys(3MeBn)-Glu-Aib-Asp-Trp-Leu-Thr-Trp-Gln-Cys]-NH2

Source: US20250339569A1 (3B PHARMACEUTICALS, published 2025)
